Consider one substance from patent US6160106.

The assay deals with Fas/APO-1 (human) (UniProt P25445).

As for “agonistic anti-APO-1 monoclonal antibody”, the cell death of HeLa cells (rounding up and detachment, neutral red dye uptake) stood at 70%.
